In patent publication US20190170753A1 (ICAHN SCHOOL OF MEDICINE AT MOUNT SINAI, published 2019):
Where no end group is shown, it is not given here.

Assays:
[1] = target: T1, C113WT biotin labeled HCV core peptide (hepatitis C virus, also: biotin labeled, position not given here); assay: capture EIA with biotin peptide
T1 peptide: RGSRPSWGPTD

[2] = target: T2, C113T109N biotin labeled HCV core peptide (hepatitis C virus, also: biotin labeled, position not given here); assay: capture EIA with biotin peptide
T2 construct: also called C113T110N
T2 peptide: RGSRPSWGPND

[3] = target: T3, WT1STHV biotin labeled HCV core peptide (hepatitis C virus, biotin labeled (position not given)); assay: capture EIA; Ab 15.625 ng/mL; bt-peptide 500 ng/mL
T3 peptide: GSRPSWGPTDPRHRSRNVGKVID

[4] = target: T4, Mut1T110N biotin labeled HCV core peptide (hepatitis C virus, biotin labeled (position not given)); assay: capture EIA; Ab 15.625 ng/mL; bt-peptide 500 ng/mL
T4 peptide: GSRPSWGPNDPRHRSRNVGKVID

[5] = target: T3, WT1STHV biotin labeled HCV core peptide; assay: capture EIA; Ab 0.977 ng/mL; bt-peptide 500 ng/mL
Experimental: (§1) Assay wells were coated with sheep anti-mouse IgG Fc specific antibody and incubated overnight. The coating solution was then removed; the wells blocked using BSA/tween in PBS and then washed with dH2O. […] Next, biotin labeled peptides (diluted to 500 ng/mL in block) were added, the plates incubated for 10 minutes while shaking at 700 rpm and then washed. Peroxidase conjugated streptavidin (diluted to 200 ng/mL in block) was then added to all assay wells, incubated for 20 minutes while shaking at 700 rpm and then washed. Finally, color was developed using OPD and signal quenched using 1N H₂SO₄. Signal was read at 492 nm.

[6] = target: T1, C113WT biotin labeled HCV core peptide; assay: capture EIA; Ab 0.977 ng/mL; bt-peptide 500 ng/mL
Experimental: as §1

[7] = target: T4, Mut1T110N biotin labeled HCV core …; assay: capture EIA; Ab 0.977 ng/mL; bt-peptide 500 ng/mL
Experimental: as §1

[8] = target: T2, C113T109N biotin labeled HCV core …; assay: capture EIA; Ab 0.977 ng/mL; bt-peptide 500 ng/mL
Experimental: as §1

[9] = target: T5, Mut6T110S biotin labeled HCV core peptide (hepatitis C virus, biotin labeled (position not given)); assay: capture EIA; Ab 0.977 ng/mL; bt-peptide 500 ng/mL
[10] = target: T6, 92-133 biotin labeled HCV core peptide (hepatitis C virus, UniProt Q9WMX2 92-133, chain 1: biotin label (bt-pep). Its position and any spacer are not visible in the passages shown.); assay: capture EIA; Ab 0.977 ng/mL; bt-peptide 500 ng/mL
T6 construct: Only the label 92-133 is printed
T6 peptide: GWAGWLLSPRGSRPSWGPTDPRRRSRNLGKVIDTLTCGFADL
Experimental: as §1

[11] = target: T3, WT1STHV biotin labeled HCV core peptide; assay: capture EIA; Ab 250 ng/mL; bt-peptide 500 ng/mL
Experimental: as §1

[12] = target: T1, C113WT biotin labeled HCV core peptide; assay: capture EIA; Ab 250 ng/mL; bt-peptide 500 ng/mL
Experimental: as §1

[13] = target: T4, Mut1T110N biotin labeled HCV core …; assay: capture EIA; Ab 250 ng/mL; bt-peptide 500 ng/mL
Experimental: as §1

[14] = target: T2, C113T109N biotin labeled HCV core …; assay: capture EIA; Ab 250 ng/mL; bt-peptide 500 ng/mL
Experimental: as §1

[15] = target: T5, Mut6T110S biotin labeled HCV core …; assay: capture EIA; Ab 250 ng/mL; bt-peptide 500 ng/mL
Experimental: as §1

[16] = target: T6, 92-133 biotin labeled HCV core peptide; assay: capture EIA; Ab 250 ng/mL; bt-peptide 500 ng/mL
Experimental: as §1

B1: Neo4 mouse monoclonal antibody (antibody, V domains shown)
VH: QIQLKESGPAVIKPSQSLSLTCIVSGFSITSSVYCWQWIRQPPGKGLEWMGRICYDGSVDYSPSITSRGTISRDTSLNKVFFQLSSVTNEDTAMYYCSRENHIDYYDTTYPSFDVWGAGTTVTVSS
VL: DIVLTQSPASLIVSLGQRATISCRASKSVNEYGYTYMHWYQQKPGLPPKLLIYLASNLDSGVPARFSGSGSGTDFTLNIHPVEEEDAATYYCQHSRELPYTFGGGTKLEIKR
notes: Mouse hybridoma antibody, isotype IgG1, purified with Protein G; also called HCV Neo4
B1 was tested, and the binding result [1] was “no binding”, the binding result [2] was “no binding” and the “signal at 492 nm” value [3] was 1.42 A492. The “signal at 492 nm” value [4] was 0.0771 A492, the “signal at 492 nm” value [5] was 0.22 A492 and the “signal at 492 nm” value [6] was 0.0584 A492. For the same binder, the “signal at 492 nm” value [7] was 0.0619 A492, the “signal at 492 nm” value [8] was 0.0784 A492 and the “signal at 492 nm” value [9] was 0.0644 A492. The “signal at 492 nm” value [10] was 0.0978 A492, the “signal at 492 nm” value [11] was 1.99 A492 and the “signal at 492 nm” value [12] was 0.0607 A492. The “signal at 492 nm” value [13] was 0.089 A492, the “signal at 492 nm” value [14] was 0.111 A492 and the “signal at 492 nm” value [15] was 1.15 A492. For the same binder, the “signal at 492 nm” value [16] was 1.4 A492.
